In US20050176118A1, “Esterases with lipase activity” (priority 2002, published 2005):

Experiments:
[1] = cited from earlier work
[2] = Permethrin hydrolysis, radiometric partition assay (acid-labelled substrate); format: biochemical; conditions: sequential incubation of trans permethrin with E3WT and E4 from OP resistant aphid homogenates
Experimental: Expressed enzymes were tested for permethrin hydrolytic activity using a radiometric partition assay for acid-labelled compounds, or a TLC based assay for those labelled in the alcohol moiety (Devonshire and Moores, 1982). […] The power of the analyses was increased by separating permethrin into its cis and trans isomers.
Preparative thin layer chromatography (TLC) on silica was used to separate the isomers into two enantiomer pairs: 1S/1R cis and 1S/1R trans. […] Enzyme preparations could then be assayed for the hydrolysis of each enantiomer pair.
This assay (Devonshire and Moores, 1982) is used for permethrin isomers. It relies on incubating the expressed esterase with radiolabelled substrate and then measuring the radioactive cyclopropanecarboxylate anion in the aqueous phase after extracting the unchanged substrate into organic solvent. Based on previous experience, the best extraction protocol utilises a 2:1 (by volume) mixture of methanol and chloroform. […] Subsequent addition of an excess of chloroform and buffer exceeds the capacity of the methanol to hold the phases together, so that the organic phase can be removed and the product measured in the aqueous phase. […]

[3] = Esterase activity with α-naphthyl acetate; format: biochemical; conditions: substrate α-naphthyl acetate; for Km: read-out: α-NA activity Km
[4] = Fluorometric determination of lipase activity; format: biochemical; conditions: 4-MU-palmitate 10^−4M; ± standard error of duplicate assays
Description: A fluorogenic assay was used to measure lipase activity of insect esterases or lipases, and mutants thereof. The fluorogenic substrate provides rapid reproducible methods for measuring enzymatic activity. Fatty acid esters (acylated) of 4-methylumbelliferone fluorophors are used as substrates for the identification of lipase activity. This assay uses the fluorophore 4-methylumbelliferyl palmitate (4-MU-palmitate) (structure provided below) and is a modification of the fluorometric esterase titration assay of Devonshire et al. (2002) and the method of Hamid et al. (1994) used for the rapid characterisation and identification of Mycobacteria. [drawing 4]
4-MU-palmitate is hydrolysed by a lipase to release the fluorescent 4-methylumbelliferone (4-MU), which can be measured by a fluorimeter.
A standard curve for 4-MU is prepared in each plate alongside the titrations. 25 μL 10^−2M dMU stock (19.8 mg/10 ml in 100% ethanol) was diluted with 2.475 ml (3×825 μl) ethanol to give a 10^−4M solution. This 10^−4M solution was used to prepare a standard curve from 0 to 1.0 μM in 0.1M phosphate buffer pH 7.0 (plus 0.05% or 0.5% ultrapure Triton X-100 (TX100) if present in cell extracts). This was done by dispensing 25 μl, 20 μl, 15 μl, 10 μl, 5 μl, 0 μl (plus ethanol to 25 μl) into tubes and adding 2.475 ml phosphate buffer (or phosphate buffer containing TX100 if required), then adding 100 μl per well. This gives 0.2, 0.4, 0.6, 0.8 and 1.0 uM in 0.25% TX100.
The samples were read on a Fluorostar fluorometer (BMG LabTechnologies) alongside the following titration reactions using the basic settings: excitation—355 nm, emission—460 nm, gain—zero, 10 cycles of 180 secs with shaking before each cycle.
For the assay, 20 μl of 5×10^−4 4-MU-palmitate (in 100% acetone) was to the wells that require substrate (II & III as defined in Table 4 below) and air dried. […] Cell extracts should be added immediately before readings start.
Corrected fluorescence (Fcorrected) was calculated by the following equations. […]

[5] = Hydrolysis of Type II pyrethroid, chloroform-methanol extraction assay; format: biochemical; design: key: —: Not substantially different from values obtained using control cell extracts
Experimental: Since the TLC assay is more protracted than the chloroform-methanol extraction procedure, the latter (as described above for acid-labelled pyrethroids) was adopted to measure the 3-phenoxbenzoate anion produced from these substrates.
For all assays the molar amount of product formed was calculated from the known specific activity of the radiolabelled substrate. […] Assays at concentrations greater than 0.5 μM, which approximates the published aqueous solubility of permethrin, gave erratic results so precluding the measurement of Km and kcat. […] Assay conditions were therefore adjusted to measure the hydrolysis of the more-readily hydrolysed enantiomer in each pair. […] The same considerations about substrate solubility and proportionality of response to its concentration were assumed for all enzymes and substrates.
The specificity constant (ie kcat/Km) can therefore be calculated from the above equation using the initial hydrolysis rate (pmol/min, calculated from the known specific activity of the radiolabelled substrate) and the concentrations of substrate and enzyme in the assay. The diffusion-limited maximum value for a specificity constant is 10^8-10^9 M^−1sec^−1 (Stryer, 1981).

Molecule | published solubility in aqueous solution [1] [µM] | enantiomer preference for trans permethrin [2] | α-NA activity kcat [3] [s⁻¹] | Km [3] [µM] | 4-MU-palmitate activity [4] | Specificity Constant (kcat/Km) 1R cis αR deltamethrin [5] | Specificity Constant (kcat/Km) 1R cis αS deltamethrin [5] | Specificity Constant (kcat/Km) 1S cis αR deltamethrin [5] | Specificity Constant (kcat/Km) 1S cis αS deltamethrin [5]
CC1(C)C(C=C(Cl)Cl)C1C(=O)OCc1cccc(Oc2ccccc2)c1 (stereo not drawn) [permethrin] | 0.5 |  |  |  |  |  |  |  | 
E3WT: wild-type Lucilia cuprina E3 α-carboxylesterase (SEQ ID NO:1), baculovirus expressed (protein, listed as Lucilia cuprina) MNFNVSLMEKLKWKIKCIENKFLNYRLTTNETVVAETEYGKVKGVKRLTVYDDSYYSFEGIPYAQPPVGELRFKAPQRPTPWDGVRDCCNHKDKSVQVDFITGKVCGSEDCLYLSVYTNNLNPETKRPVLVYIHGGGFIIGENHRDMYGPDYFIKKDVVLINIQYRLGALGFLSLNSEDLNVPGNAGLKDQVMALRWIKNNCANFGGNPDNITVFGESAGAASTHYMMLTEQTRGLFHRGILMSGNAICPWANTQCQHRAFTLAKLAGYKGEDNDKDVLEFLMKAKPQDLIKLEEKVLTLEERTNKVMFPFGPTVEPYQTADCVLPKHPREMVKTAWGNSIPTMMGNTSYEGLFFTSILKQMPMLVKELETCVNFVPSELADAERTAPETLEMGAKIKKAHVTGETPTADNFMDLCSHIYFWFPMHRLLQLRFNHTSGTPVYLYRFDFDSEDLINPYRIMRSGRGVKGVSHADELTYFFWNQLAKRMPKESREYKTIERMTGIWIQFATTGNPYSNEIEGMENVSWDPIKKSDEVYKCLNISDELKMIDVPEMDKIKQWESMFEKHRDLF |  | preference for the 1S trans enantiomer | 248 | 71 | 0.0298 ± 0.0006^1 moles 4MU produced per sec per mole of enzyme | — | — | —^1 | —
MpE4WT: wild-type Myzus persicae E4 α-carboxylesterase (SEQ ID NO:3) (protein, listed as Myzus persicae) MKNTCGILLNLFLFIGCFLTCSASNTPKVQVHSGEIAGGFEYTYNGRKIYSFLGIPYASPPVQNNRFKEPQPVQPWLGVWNATVPGSACLGIEFGSGSKIIGQEDCLFLNVYTPKLPQENSAGDLMNVIVHIHGGGYYFGEGILYGPHYLLDNNDFVYVSINYRLGVLGFASTGDGVLTGNNGLKDQVAALKWIQQNIVAFGGDPNSVTITGMSAGASSVHNHLISPMSKGLFNRAIIQSGSAFCHWSTAENVAQKTKYIANLMGCPTNNSVEIVECLRSRPAKAIAKSYLNFMPWRNFPFTPFGPTVEVAGYEKFLPDIPEKLVPHDIPVLISIAQDEGLIFSTFLGLENGFNELNNNWNEHLPHILDYNYTISNENLRFKTAQDIKEFYFGDKPISKETKSNLSKMISDRSFGYGTSKAAQHIAAKNTAPVYFYEFGYSGNYSYVAFFDPKSYSRGSSPTHGDETSYVLKMDGFYVYDNEEDRKMIKTMVNIWATFIKSGVPDTENSEIWLPVSKNLADPFRFTKITQQQTFEAREQSTTGIMNFGVAYH |  | preference for the 1S trans enantiomer | 3 | 28 | 0.1051 ± 0.0033 moles 4MU produced per sec per mole of enzyme |  |  |  | 
EST23WT: wild-type Drosophila melanogaster EST23 α-carboxylesterase (SEQ ID NO:2) (protein, Drosophila melanogaster) MNKNLGFVERLRGRLKTIEHKVQQYRQSTNETVVADTEYGQVRGIKRLSLYDVPYFSFEGIPYAQPPVGELRFKAPQRPIPWEGVRDCSQPKDKAVQVQFVFDKVEGSEDCLYLNVYTNNVKPDKARPVMVWIHGGGFIIGEANREWYGPDYFMKEDVVLVTIQYRLGALGFMSLKSPELNVPGNAGLKDQVLALKWIKNNCASFGGDPNCITVFGESAGGASTHYMMLTDQTQGLFHRGILQSGSAICPWAYNGDITHNPYRIAKLVGYKGEDNDKDVLEFLQNVKAKDLIRVEENVLTLEERMNKIMFRFGPSLEPFSTPECVISKPPKEMMKTAWSNSIPMFIGNTSYEGLLWVPEVKLMPQVLQQLDAGTPFIPKELLATEPSKEKLDSWSAQIRDVHRTGSESTPDNYMDLCSIYYFVFPALRVVHSRHAYAAGAPVYFYRYDFDSEELIFPYRIMRMGRGVKGVSHADDLSYQFSSLLARRLPKESREYRNIERTVGIWTQFAATGNPYSEKINGMDTLTIDPVRKSDEVIKCLNISDDLKFIDLPEWPKLKVWESLYDDNKDLLF |  |  | 276 | 82 | 0.0677 ± 0.0032 moles 4MU produced per sec per mole of enzyme | — | — |  | 
